Where no end group is shown, it is not given here.
Target: T1, Fc-chimeric NKG2D, P26718
T1 chain: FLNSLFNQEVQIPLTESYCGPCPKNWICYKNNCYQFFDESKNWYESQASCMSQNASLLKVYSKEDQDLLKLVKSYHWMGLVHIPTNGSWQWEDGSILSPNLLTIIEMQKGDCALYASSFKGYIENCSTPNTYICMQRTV

B1: biotinylated SVH1C (quadravalent, C-terminal ε-biotinyl-lysine amide) (peptide)
peptide: NPSHPLSGGGGS
chain: KKKK
modifications: not fully specified (some residues, C-terminus); also: quadravalent: four peptide copies on lysine scaffold
  Kd: 1000 nM

— patent US20150299252A1
